The source of these data is the nanobody polyreactivity screen of Harvey et al. (2022).

A short description of the data set: yeast display, Sf9 membrane polyspecificity reagent, FACS + sequencing; frameworks hold sequencing errors. The procedure, abridged:
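A synthetic nanobody library was expressed on Saccharomyces cerevisiae BJ5465 by galactose induction for 36–48 hours. The library was stained for 1 hour at 4 °C with 10% biotinylated, detergent-solubilized Sf9 membrane reagent and enriched with streptavidin microbeads before FACS. Low and high (top ~1%) gates were set on anti-HA fluorescence for expression and streptavidin fluorescence for reagent binding, and each polyreactivity label reflects the gate of origin.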
Consider “QVQLVESGGGLVQAGGSLRLSCAASGSTFDPYAMGWYRQAPGKERELVAAITWGGGSTYADSVKGRFTISRDNAKNTVYLQMNSLKPEDTAVYYCAAEYYLWLFEYYVEYDYWGQGTQVTVSS”, for which the “polyreactivity (PSR sort gate)” value is “high polyreactivity”.
Take “QVQLVESGGGLVQAGGSLRLSCAASGSTFDRYAMGWYRQAPGKERELVAAISWSAGRTYYADTVKARFTISRDYAKNTVYLQMNSLKPEDTAVYYCAADQIVSGTYDYYWGQGTQVTVSS”: the “polyreactivity (PSR sort gate)” value was “low polyreactivity”.
“QVQLVESGGGLVQAGGSLRLSCAASGSTFDRYAMGWYRQAPGKERELVAAISWSGGSTYYADSVKGRFTISRDNAKNTVYLQMNSLKPEDTAVYYCARRYARITPVYAPLNYWGQGTQVTVSS”: the “polyreactivity (PSR sort gate)” value was “high polyreactivity”.
Consider “QVQLVESGGGLVQAGGSLRLSCAASGSTFDRYAMGWYRQAPGKERELVAAITGSGGRTYYADSVKGRFTISRDNAKNTVYLQMNSLKPEDTAVYYCAARRSGYYLYSVDYWGQGTQVTVST”, for which the “polyreactivity (PSR sort gate)” value is on record as “high polyreactivity”.
For “QVQLVESGGGLVQAGGSLRLSCAASGSTFDRYAMGWYRQAPGNERELVAAISSSGGTTYYADSVKGRFTITRDNAKTTVYVQMNSLKPEDTAVYYCAAVRYYESRGGYDYWGQGPQVTVSS”, the “polyreactivity (PSR sort gate)” value is “low polyreactivity”.
Turning to “QVQLVESGGGLVQAGGSLRLSCAASGSTFDSNDMGWYRQAPGKERELVAGITWSGASTYYADSVKGRFTISRDNAKNTVYLQMNSLKPEDTAVYYCAAGPWGTGHYVQGPVYYYRYDYWGQGTQVTVSS”, the “polyreactivity (PSR sort gate)” value is “low polyreactivity”.
As to “QVQLVESGGGLVQAGGSLRLSCAASGSTFDSYAMGWYRQAPGKERELVAAISRSGGRTYYADSVKGRFTISRDNAKNTVYLQMNSLKPEDTAVYYCNAAYKRWVTPGYDAYDYWGQGTQVTVSS”, the “polyreactivity (PSR sort gate)” value is “high polyreactivity”.
Under “QVQLVESGGGLVQAGGSLRLSCAASGSTFDSYAMGWYRQDPGKERELFAAITYSGGRTYYADSVKGRFTISRDNAKNTVYLQMNSLKPEDTAVYYCAATGVFRDEYWGQGTQVTVSS” stands “low polyreactivity”; under “QVQLVESGGGLVQAGGSLRLSCAASGSTFDSYRMGWYRQAPGKERELVASISSRGGSTYYADSVKGRFTISRDNAKNTVSLQMNSLKPEATAVYYCAADWLSWFHGYGMYYWGQGTQVTVSS”, “low polyreactivity”.
To “QVQLVESGGGLVQAGGSLRLSCAASGSTFDTNAMGWYRQPPGKERELVASISSAGSTNYADSVKGRFTISRDNAKNTVYLQMNSLKPEDTAVYYCAKYYGQFYPTTLGYWGQGTQVTVSS” belongs “low polyreactivity”.
To “QVQLVESGGGLVQAGGSLRLSCAASGSTFDTYAMGWYRQAPGKEMELVAVISSGGGTYYADSVKGRFTISRDNAKNTVYLQMNSLKPEDTAVYYCAADRPTPYGYESTYDYWGQGTQVTVSS” belongs “low polyreactivity”.
Turning to “QVQLVESGGGLVQAGGSLRLSCAASGSTFDTYGMGWYIQAPGKERELDASISSRGGSTYYADSVEGRFTISRDNAKNSVYLQMNSLKPDDTAVYYCAADWLSWFHGYGMYYWGQGTKVTVSS”, the “polyreactivity (PSR sort gate)” value was “low polyreactivity”.
Turning to “QVQLVESGGGLVQAGGSLRLSCAASGSTFDTYTRGWYRQAPGKERELVAAITTSGGSTYYADSVKGRFTISRDNAKNTVYLQMNSLKPEDTAVYYCAADFFPGGYPEMDYWGQGTQVTVSS”, the “polyreactivity (PSR sort gate)” value is listed as “high polyreactivity”.
As for “QVQLVESGGGLVQAGGSLRLSCAASGSTFDVYAMGWYRQAPGKERELVAAITWIGGSTYYADSVKGRFTISRDNAKNTVYLQMNSLKPEDTAVYYCARHDYGWVDYWGQGTQVTVSS”, the “polyreactivity (PSR sort gate)” value is reported as “high polyreactivity”.
Regarding “QVQLVESGGGLVQAGGSLRLSCAASGSTFDVYAMGWYRQAPGKERELVAALTSGGTTNYADSVKGRFTISRDNAKNTVYLQMNSLKPEDTAVSYCNARLTLRSYDYWGQGTLVTVSS”, the “polyreactivity (PSR sort gate)” value is on record as “low polyreactivity”.
As to “QVQLVESGGGLVQAGGSLRLSCAASGSTFDYNSMGWYRQAPGKERELVATINDSGGNTYYADSVKGRFTISRDNAKNTVYLQMNSLKPEDTAVYYCATVGYLYTPVVVTWWDWGDYWGQGTQVTVSS”, the “polyreactivity (PSR sort gate)” value is “low polyreactivity”.
